Results as given in patent US20240401239A1 (US Dept. of Health and Human Services, published 2024).

B1: RBD-1-2G-Tri (bispecific antibody)
chain: EVQLVESGGGLVQPGGSLRLSCAASGFSSIVYMGWFRQAPGKGRELVAAIDASGSTTNYPDSVEGRFTISRDNAKRMVYLQMNSLRAEDTAVYYCAIAYFTSPEYVVSQGWGQGTQVTVSSGGGGSGGGGSGGGGSEVQLVESGGGLVQPGGSLRLSCAASGFSSIVYMGWFRQAPGKGRELVAAIDASGSTTNYPDSVEGRFTISRDNAKRMVYLQMNSLRAEDTAVYYCAIAYFTSPEYVVSQGWGQGTQVTVSSGGGGSGGGGSGGGGSEVQLVESGGGLVQPGGSLRLSCAASGFSSIVYMGWFRQAPGKGRELVAAIDASGSTTNYPDSVEGRFTISRDNAKRMVYLQMNSLRAEDTAVYYCAIAYFTSPEYVVSQGWGQGTQVTVSSHHHHHH
B2: RBD-1-2G-Fc (Fc fusion)
chain: EVQLVESGGGLVQPGGSLRLSCAASGFSSIVYMGWFRQAPGKGRELVAAIDASGSTTNYPDSVEGRFTISRDNAKRMVYLQMNSLRAEDTAVYYCAIAYFTSPEYVVSQGWGQGTQVTVSS
notes: also called bivalent format of RBD-1-2G
B3: single-domain antibody RBD-1-2G (VHH)
VHH: EVQLVESGGGLVQPGGSLRLSCAASGFSSIVYMGWFRQAPGKGRELVAAIDASGSTTNYPDSVEGRFTISRDNAKRMVYLQMNSLRAEDTAVYYCAIAYFTSPEYVVSQGWGQGTQVTVSS
notes: also called RBD-1-2G Nb; RBD-1-2G nanobody

Key:
[1] = biological target: SARS-COV-2 S protein (Wuhan-Hu-1, WT) on MLV pseudotyped particles (SARS-COV-2, UniProt P0DTC2 14-1254); assay: cell-based or functional assay
[2] = biological target: spike protein of authentic SARS-COV-2 virus (USA_WA1/2020) (SARS-COV-2, UniProt P0DTC2 14-1273); assay: cell-based or functional assay
[3] = biological target: SARS-COV-2 spike protein receptor binding domain fused to an Fc tag (RBD-Fc, residues 319-541) (Sino … (SARS-COV-2, UniProt P0DTC2 319-541))
[4] = biological target: T1, mitochondrial elongation factor 1 (MIEF1) (human, UniProt Q9NQG6 1-463); assay: flow cytometry validation after the membrane proteome array screen
T1 construct: whole, on cells
T1 sequence (Q9NQG6 whole entry): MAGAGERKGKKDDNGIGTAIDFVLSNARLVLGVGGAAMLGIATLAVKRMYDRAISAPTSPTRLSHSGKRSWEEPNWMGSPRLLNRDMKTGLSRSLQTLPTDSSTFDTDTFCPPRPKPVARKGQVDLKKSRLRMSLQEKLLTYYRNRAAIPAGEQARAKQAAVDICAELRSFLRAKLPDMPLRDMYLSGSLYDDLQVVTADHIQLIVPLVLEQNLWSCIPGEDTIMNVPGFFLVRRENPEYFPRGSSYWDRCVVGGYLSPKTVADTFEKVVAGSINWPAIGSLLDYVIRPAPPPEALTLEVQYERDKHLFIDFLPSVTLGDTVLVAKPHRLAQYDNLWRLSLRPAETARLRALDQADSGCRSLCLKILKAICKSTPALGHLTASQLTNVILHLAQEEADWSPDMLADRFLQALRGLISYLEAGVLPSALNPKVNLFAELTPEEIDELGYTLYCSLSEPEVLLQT

Row | Binder | IC50, pseudotyped particle entry assay, wildtype particles [1] [nM] | IC50, SARS-COV-2 live virus (CPE) assay on Vero E6 cells [2] [nM] | IC50 [3] [nM] | IC50, SARS-COV-2 pseudotyped particle entry assay (HEK293-ACE2 cells) [1] [nM] | IC50, SARS-COV-2 live virus assay, lyophilized and reconstituted RBD-1-2G [2] [nM] | IC50, SARS-COV-2 live virus assay, untreated RBD-1-2G [2] [nM] | binding result [4]
1 | B1 | 4.5 | 182 | – | – | – | – | –
2 | B2 | 10.2 | 255 | – | – | – | – | –
3 | B3 | 512 | 1210 | 28.3 | 490 | 5900 | 14800 | no binding
